Data as given in patent publication US10456465B2, “Compositions, kits, and methods for the diagnosis prognosis, monitoring, treatment and modulation of post-transplant lymphoproliferative disorders and hypoxia associated angiogenesis disorders using galectin-1” (Dana-Farber Cancer Institute, Inc., priority 2009, dated 2019).

Legend:
[1] = tested on: HUVEC; experiment: HUVEC proliferation ([3H]thymidine incorporation); type: cell-based, human
Protocol: (§1) HUVEC transfected or not with specific siRNA or pre-incubated with signaling pathway inhibitors were exposed to VEGF or Gal1 with or without lactose, sucrose, 8F4F8G7 mAb or control isotype (IgG1κ) or specific antibodies for VEGFR1 (AP-MAB0702; Abcam), VEGFR2 (AF357; R&D), VEGFR3 (AB89501; Abcam) or VEGF (MAB293; R&D). Cells were processed for proliferation, migration, invasion and tube formation assays. Tumor-associated blood vessels were identified by flow cytometry using Alexa Fluor 647-conjugated anti-CD34 antibody (RAM34; eBioscience).
For proliferation assays, HUVEC that were transfected or not with specific siRNA and cultured in complete M199 medium were trypsinized, harvested and seeded in 96-well microtiter plates (1×10^3 cells/well). Cells were pre-incubated for 1 hour at 37° C. with lactose, sucrose or signaling pathway inhibitors and then exposed to Gal1. After 24 hours, cells were incubated for an additional 24 hours in the presence of 0.8 μCi [^3H]-thymidine (NEN Dupont). Cells were then harvested and radioactivity was measured in a 1414 Liquid Scintillation Counter (Perkin Elmer).

[2] = tested on: HUVEC; experiment: HUVEC migration (transwell); type: cell-based, human
Protocol: as §1
(§2) The formation of capillary-like tubular structures was assessed in Matrigel-coated plates essentially as described in Albini et al. (2001), Cancer Res 61, 8171-8178. In brief, HUVEC (3×10^4 cells/ml) transfected or not with specific siRNA or pre-incubated with signaling pathway inhibitors were seeded on Matrigel with our without Gal1 (0.1 to 3 μM) or VEGF (20 ng/ml) with or without lactose, sucrose, 8F4F8G7 mAb (0.5 μM) or isotype control (IgG1K) or blocking antibodies specific for VEGFR1 (5 μg/ml), VEGFR2 (2 μg/ml), VEGFR3 (10 μg/ml) or VEGF (10 μg/ml). Cells were incubated at 37° C. for periods ranging from 0 to 24 h and were visualized by phase-contrast microscopy. In another set of experiments, conditioned medium from hypoxic or normoxic KS cells infected or not with a retroviral vector containing Gal1 shRNA was assessed on HUVEC transfected or not with GnT5, GCNT1 or scr siRNA (100 nM). Capillary-like tubular structures were scored by counting the number of tubules (closed areas) per well in a phase-contrast microscope (Nikon E-100). For migration assays, HUVEC (4×10^4/well) transfected or not with specific siRNA were resuspended in M199 medium supplemented with 1% FCS. Cells were placed into the top chamber of the insert while the bottom well was filled with Gal1 or VEGF in the absence or presence of lactose, sucrose, 8F4F8G7 mAb or isotype control. After 24 hours, inserts were stained with crystal violet (Sigma) and analyzed in an inverted microscope. For each filter, 4 images were collected and cells were counted with the ImageJ software v1.34 (NIH).

[3] = molecular target: T1, Gal1 (Homo sapiens, UniProt P09382); experiment: Binding of 488-Gal1 to HUVEC
T1 construct: made in house
T1 sequence (P09382 whole entry): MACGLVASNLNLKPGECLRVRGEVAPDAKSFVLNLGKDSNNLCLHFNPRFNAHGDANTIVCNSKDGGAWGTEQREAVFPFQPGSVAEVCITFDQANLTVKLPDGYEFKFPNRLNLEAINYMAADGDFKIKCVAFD
Protocol: For glycophenotyping, ECs were incubated with biotinylated L-PHA, LEL, SNA, MAL II, PNA and HPA (all from Vector). Recombinant Gal1 was purified as described in Ilarregui et al. (2009) Nat Immunol 10, 981-991. For binding assays, ECs were incubated for 1 h at 4° C. with dyLight 488-labeled galectins in the absence or presence of lactose, sucrose, anti-Gal1 or isotype control mAb or following transfection with GnT5, GCNT1 or scrambled siRNA. Cells were analyzed on a FACSAria (BD Biosciences). For segregation, ECs were treated with Gal1 for 1 h, fixed and incubated for 1 h with anti-human VEGFR2 antibody (55B11; Cell Signaling) as described in Ilarregui et al. (2009) Nat Immunol 10, 981-991. Cells were analyzed on a Nikon laser confocal microscope (Eclipse E800).
DyLight 488-conjugated Gal1 (488-Gal1) was obtained using DyLight labeling kit (Thermo Scientific). Inhibitors of Jak2-STAT3 (AG490; 5 μM), Jnk-SAP (SP600125; 20 μM), p38 (SB202190; 10 μM), HIF-1α (3 μM) and O-glycosylation (benzyl-α-Ga1NAc; 2 mM) were from Calbiochem. Inhibitors of Erk1/2 (U0126; 5 μM), PI(3)K-Akt (Ly294002; 2 μM) and NF-κB (BAY 11-7082; 1 μM), ROS (N-acetyl-cysteine; NAC), N-glycosylation (swainsonine; 3 μM), lactose or sucrose (30 mM) were from Sigma. PNGase F (25 U/μg protein) was from New England Biolabs. Recombinant cytokines including IL-10 (50 ng/ml), IL-17 (5 ng/ml), TGF-β1 (3 ng/ml), IFN-γ (50 ng/ml), VEGF (20 ng/ml), bFGF (10 ng/ml) were from R&D. TNF (20 ng/ml) was from Sigma. Biotinylated lectins, including L-PHA (2 μg/ml), LEL (1 μg/ml), SNA (5 μg/ml), MAL II (10 μg/ml), PNA (10 μg/ml) and HPA (10 μg/ml) were purchased from Vector Labs and incubated in buffer containing 150 mM NaCl, 10 mM HEPES and 1% BSA (Sigma). ON-TARGETplus SMART siRNA pools against GnT5, GCNT1, VEGFR2, NRP-1, VEGF, HIF-1α and scrambled were obtained from Dharmacon. Transfections were performed by Lipofectamine-RNAiMAX (Invitrogen) following manufacturer's directions. Recombinant Gal3 and Gal8 were purified as described in Acosta-Rodriguez et al. (2004) J Immunol 172, 493-502 and Cardenas Delgado et al. (2010) FASEB J [Epub ahead of print].

[4] = tested on: HUVEC; experiment: HUVEC capillary tube formation on Matrigel; type: cell-based, human
Protocol: as §1, §2

rGal1: recombinant human galectin-1
EC proliferation ([1]; HUVEC treated with Gal1): elicited
EC migration ([2]; HUVEC treated with Gal1): elicited
binding of fluorescently-labeled Gal1 to ECs ([3]; flow cytometry): bound to ECs in a dose- and carbohydrate-dependent fashion
formation of three-dimensional tubular networks ([4]; HUVEC treated with Gal1): at levels similar to those attained by VEGF

B1: anti-Gal1 monoclonal antibody 8F4F8G7 (antibody, V domains shown)
VH: EVQLQQSVAEFVRPGASVRLSCTASGFNIKNTYIHWVRQRPEQGLEWIGKIDPANGNTKYVPEFQGKATMTADTSSNTVYLHLSSLTSEDTAIYYCVDGYYGWYFAVWGTGTTVTVSS
VL: QAVVTQESALTTSPGETVTLTCRSSTGAVTTSNYANWVQEKPDHLFTGLIGATNNRAPGVPARFSGSLIGDKAVLTITGAQTEDEAIYFCALWYRNHFIFGSGTKVTVL
notes: Murine hybridoma mAb (deposit PTA-10535), lambda light chain; also called 14-19 8F4-F8-G7; clone 8F4.8F.67
effect on Gal1-induced EC proliferation ([1]; induced by Gal1): prevent
effect on Gal1-induced EC migration ([2]; induced by Gal1): prevent
effect on EC migration in the absence of exogenous Gal1 ([2]; no exogenous Gal1): did not alter
effect on binding of Gal1 to ECs ([3]; lactose/sucrose 30 mM, swainsonine 3 μM, benzyl-α-GalNAc 2 mM, mAb 0.5 μM): prevented
effect on Gal1-induced capillary tube formation ([4]; induced by Gal1): prevent
effect on tube formation in the absence of exogenous Gal1 ([4]; no exogenous Gal1): did not alter
